Assay results published in paper PMC9174452.

How the values were obtained:
[1] = biological target: C3d^A4H-C3d^W41A heterodimer (human)
[2] = biological target: human C3d^17A (monomeric) (human); experiment: near-UV circular dichroism thermal melt; 87.5 µM C3d^17C or C3d^17A alone or with an equimolar concentration of the Sbi construct, 10 mM sodium phosphate pH 7.4, 250-320 nm, 5°C to 85°C; Tm from Boltzmann sigmoidal fits at 280 and 296 nm

Substance	change in tryptophan fluorescence intensity of the C3d^A4H/C3d^W41A solution (100 µM, equimolar Sbi construct, excitation 295 nm), read as N-terminal helix swap [1] [%]	increase in melting temperature (Tm) of C3d^17A [2] [°C]	increase in tryptophan fluorescence intensity of the C3d^A4H/C3d^W41A solution (100 µM, equimolar Sbi construct, excitation 295 nm), read as N-terminal helix swap [1] [%]
truncated Sbi-IV mutant Sbi-IV^V198-D208del (from UniProt Q2FVK5 198-266) (domain or fragment)	2.5	6.5	–
Sbi domain IV (wild-type Sbi-IV) (from UniProt Q2FVK5 198-266) (domain or fragment)	–	–	27
Sbi domains III and IV (wild-type Sbi-III-IV) (from UniProt Q2FVK5 150-266) (domain or fragment)	–	–	17
